Reference: the Human Domainome abundance scans (Beltran et al. 2025)
± gives the uncertainty stated by the source.

B1: Far upstream element-binding protein 1, residues 184 to 257; numbered along this chain, Q96AE4 (parent)
chain: GNAVQEIMIPASKAGLVIGKGGETIKQLQERAGVKMVMIQDGPQNTGADKPLRITGDPYKVQQAKEMVLELIRD

Variants of: B1
Experiment: abundance fitness (aPCA) (normalised: wild type 0, dead -1); higher = more abundant; growth selection in yeast, the domain comes from the species named
Settings: Homo sapiens

| Variant | abundance fitness |
| --- | --- |
| GNAVQEIMIPASKAGLVIGKGGETIKQLQERAGVKMVMIQDGPQNTGADKPLRITGGPYKVQQAKEMVLELIRD [D57G] | -0.218 ± 0.027 |
| GNAVQEIMIPASKAGLVIGKGGETIKQLQERAGVKMVMIQDGPQNTGADKPLRITGEPYKVQQAKEMVLELIRD [D57E] | 0.019 ± 0.029 |
| GNAVQEIMIPASKAGLVIGKGGETIKQLQERAGVKMVMIQDGPQNTGADKPLRITGPPYKVQQAKEMVLELIRD [D57P] | -0.018 ± 0.039 |
| GNAVQEIMIPASKAGLVIGKGGETIKQLQERAGVKMVMIQDGPQNTGADKPLRITGHPYKVQQAKEMVLELIRD [D57H] | -0.022 ± 0.049 |
| GNAVQEIMIPASKAGLVIGKGGETIKQLQERAGVKMVMIQDGPQNTGADKPLRITGNPYKVQQAKEMVLELIRD [D57N] | -0.083 ± 0.043 |
| GNAVQEIMIPASKAGLVIGKGGETIKQLQERAGVKMVMIQDGPQNTGADKPLRITGQPYKVQQAKEMVLELIRD [D57Q] | -0.018 ± 0.036 |
| GNAVQEIMIPASKAGLVIGKGGETIKQLQERAGVKMVMIQDGPQNTGADKPLRITGWPYKVQQAKEMVLELIRD [D57W] | -0.387 ± 0.037 |
| GNAVQEIMIPASKAGLVIGKGGETIKQLQERAGVKMVMIQDGPQNTGADKPLRITGAPYKVQQAKEMVLELIRD [D57A] | -0.017 ± 0.029 |
| GNAVQEIMIPASKAGLVIGKGGETIKQLQERAGVKMVMIQDGPQNTGADKPLRITGMPYKVQQAKEMVLELIRD [D57M] | -0.138 ± 0.038 |
| GNAVQEIMIPASKAGLVIGKGGETIKQLQERAGVKMVMIQDGPQNTGADKPLRITGLPYKVQQAKEMVLELIRD [D57L] | -0.119 ± 0.031 |
| GNAVQEIMIPASKAGLVIGKGGETIKQLQERAGVKMVMIQDGPQNTGADKPLRITGYPYKVQQAKEMVLELIRD [D57Y] | -0.208 ± 0.047 |
| GNAVQEIMIPASKAGLVIGKGGETIKQLQERAGVKMVMIQDGPQNTGADKPLRITGVPYKVQQAKEMVLELIRD [D57V] | -0.085 ± 0.029 |
| GNAVQEIMIPASKAGLVIGKGGETIKQLQERAGVKMVMIQDGPQNTGADKPLRITGCPYKVQQAKEMVLELIRD [D57C] | -0.093 ± 0.045 |
| GNAVQEIMIPASKAGLVIGKGGETIKQLQERAGVKMVMIQDGPQNTGADKPLRITGTPYKVQQAKEMVLELIRD [D57T] | -0.028 ± 0.035 |
| GNAVQEIMIPASKAGLVIGKGGETIKQLQERAGVKMVMIQDGPQNTGADKPLRITGFPYKVQQAKEMVLELIRD [D57F] | -0.285 ± 0.059 |
| GNAVQEIMIPASKAGLVIGKGGETIKQLQERAGVKMVMIQDGPQNTGADKPLRITPDPYKVQQAKEMVLELIRD [G56P] | -1.18 ± 0.073 |
| GNAVQEIMIPASKAGLVIGKGGETIKQLQERAGVKMVMIQDGPQNTGADKPLRITSDPYKVQQAKEMVLELIRD [G56S] | -1.02 ± 0.051 |
| GNAVQEIMIPASKAGLVIGKGGETIKQLQERAGVKMVMIQDGPQNTGADKPLRITNDPYKVQQAKEMVLELIRD [G56N] | -0.668 ± 0.098 |
| GNAVQEIMIPASKAGLVIGKGGETIKQLQERAGVKMVMIQDGPQNTGADKPLRITYDPYKVQQAKEMVLELIRD [G56Y] | -1.25 ± 0.17 |

| Variant | abundance fitness |
| --- | --- |
| GNAVQEIMIPASKAGLVIGKGGETIKQLQERAGVKMVMIQDGPQNTGADKPLRITVDPYKVQQAKEMVLELIRD [G56V] | -1.26 ± 0.079 |
| GNAVQEIMIPASKAGLVIGKGGETIKQLQERAGVKMVMIQDGPQNTGADKPLRITTDPYKVQQAKEMVLELIRD [G56T] | -1.12 ± 0.069 |
| GNAVQEIMIPASKAGLVIGKGGETIKQLQERAGVKMVMIQDGPQNTGADKPLRITWDPYKVQQAKEMVLELIRD [G56W] | -1.22 ± 0.077 |
| GNAVQEIMIPASKAGLVIGKGGETIKQLQERAGVKMVMIQDGPQNTGADKPLRITRDPYKVQQAKEMVLELIRD [G56R] | -1.04 ± 0.044 |
| GNAVQEIMIPASKAGLVIGKGGETIKQLQERAGVKMVMIQDGPQNTGADKPLRITQDPYKVQQAKEMVLELIRD [G56Q] | -0.962 ± 0.071 |
| GNAVQEIMIPASKAGLVIGKGGETIKQLQERAGVKMVMIQDGPQNTGADKPLRITGDPYEVQQAKEMVLELIRD [K60E] | -0.187 ± 0.033 |
| GNAVQEIMIPASKAGLVIGKGGETIKQLQERAGVKMVMIQDGPQNTGADKPLRITGDPYTVQQAKEMVLELIRD [K60T] | -0.278 ± 0.036 |
| GNAVQEIMIPASKAGLVIGKGGETIKQLQERAGVKMVMIQDGPQNTGADKPLRITGDPYFVQQAKEMVLELIRD [K60F] | -0.277 ± 0.047 |
| GNAVQEIMIPASKAGLVIGKGGETIKQLQERAGVKMVMIQDGPQNTGADKPLRITGDPYLVQQAKEMVLELIRD [K60L] | -0.065 ± 0.028 |
| GNAVQEIMIPASKAGLVIGKGGETIKQLQERAGVKMVMIQDGPQNTGADKPLRITGDPYMVQQAKEMVLELIRD [K60M] | -0.118 ± 0.038 |
| GNAVQEIMIPASKAGLVIGKGGETIKQLQERAGVKMVMIQDGPQNTGADKPLRITGDPYAVQQAKEMVLELIRD [K60A] | -0.036 ± 0.031 |
| GNAVQEIMIPASKAGLVIGKGGETIKQLQERAGVKMVMIQDGPQNTGADKPLRITGDPYPVQQAKEMVLELIRD [K60P] | -0.179 ± 0.033 |
| GNAVQEIMIPASKAGLVIGKGGETIKQLQERAGVKMVMIQDGPQNTGADKPLRITGDPYIVQQAKEMVLELIRD [K60I] | -0.653 ± 0.072 |
| GNAVQEIMIPASKAGLVIGKGGETIKQLQERAGVKMVMIQDGPQNTGADKPLRITGDPYCVQQAKEMVLELIRD [K60C] | 0.002 ± 0.039 |
| GNAVQEIMIPASKAGLVIGKGGETIKQLQERAGVKMVMIQDGPQNTGADKPLRITGDPYGVQQAKEMVLELIRD [K60G] | -0.086 ± 0.026 |
| GNAVQEIMIPASKAGLVIGKGGETIKQLQERAGVKMVMIQDGPQNTGADKPLRITGDPYDVQQAKEMVLELIRD [K60D] | -0.164 ± 0.041 |
| GNAVQEIMIPASKAGLVIGKGGETIKQLQERAGVKMVMIQDGPQNTGADKPLRITGDPYNVQQAKEMVLELIRD [K60N] | 0.029 ± 0.047 |
| GNAVQEIMIPASKAGLVIGKGGETIKQLQERAGVKMVMIQDGPQNTGADKPLRITGDPYQVQQAKEMVLELIRD [K60Q] | -0.037 ± 0.038 |
